Measurements published in the DeepSol protein solubility set.

Assay: soluble on expression in E. coli; label from the status in PepcDB or PDB records

Sequence	soluble on expression in E. coli
LWALGNDSVTAKSLTISNFTLTERKTRYELCFLLDAKNSNTVNEPLSELKNCYGKDVSNVFRTITADNGSEFSRLSEMLQGLGIEAYFTHPYSSWERGTNERHNGLIRRFIPKGKAIKDFSEETIKRIQQWLNSLPRRILGYKTPEECFNEEIHNLVNKNISAIA	not soluble
SDNGDWGHRLTHPVTLNVGGHLYTTSISTLQRYPDSMLGAMFRGDFPTTRDAQGNYFIDRDGTLFRYILNFLRTSELTLPVDFTELDLLRKEADFYQIEPLIQCLNDPKPLYPLDTFEQVVELSSTRKLSKYSNPVAVIITQLTITTKVHSLLEGISNNFTKWNKHMMDTRDCQVSFTFGPCDYHQEVSLRVHLMDYITKQGFTIRNTRVHHMSERANENTVEHHWTFCRLAYKVED	soluble
MFILSLLHDTVAIQPHQLSSDQQIVIKKRLNERLANKIIPDLGLCICVYDINEIGDSYILPGEGDCRARVKFRMIVFRPFVDEVIEAKVIGSSRQGLCLTIQFFEDIFVPAEKLPEPHVFEEEGQVWYWEYAQEDGEPPAKLYMDPGKIVRFRVTEIIFKDLKPELTHEERKTEKSMEIKGTMASTGLGCIGWWAAEDEDDEAVEDEQDEQEEVIQPKEEIRQPQEEVRQPVKIKEEPV	not soluble
MGSDKIHHHHHHMKQLGLGLNLSTKKTRKREFLEDMERVVPWAVLVQIVAPHYPKAKTGRPPFGIETMLRIHYLQQWFGLSDPAMEEALHDVPLYREFAKLDSVTARLPDETTILRFRHLLERHNLAVDMLRVVNDLLQHKGLMMRTGTAVDATLISAPSSTKNAEGERDPEMKQTRKGNNWYFGMKAHIGVDAQSGLVHTVATTGANVNDLNMAGALLHGDEEAAFGDAGYQGVHKRPEAKGPTWHVAMRPGLRRKLNPFIEPDFIAERIEKMKASIRAKVEHPFRVIKRQFGFTKVRYRGLKKNTAQIVTLFALSNLWMARRQLIGARG	not soluble
MAHHHHHHMSTMDVPGTAIEQYFNQLIQMRLLTQVIVSDTRGDTTVACLMGLEHGGDAVVSSSEDTYGVAESIMESNVALSGARCFQNLDQLNLGVPLYVSFQYHDDVVVQTLDGCCMLTLIGSRSQGHFVGGLLTLLDQIRSCEAYQELLTQTQLCFR	not soluble
MKRFRKNNLELELIRELSEIDFYNISAPLNSKEFWKEWQEKFNRANLTRIALRNILRNKRLSPKEYRKVKNSIKKYEDIINYLNALKLTALNARGSFGGYFIEFDEDEEENEGGT	not soluble
MAHHHHHHMASGGSVIGVKYNGGVLLACDTLLSYGSLAKWPNIPRMKLVGAYTVMCATGDYADFQEMTTMIENHVNRQQMYGGGALTPNEVFCYLQRHVYHKRSQFEPCLCRFVVAGCHGGEPFLGGVDDVGTRWTDDCVAAGYGAYIALPLLRQALEKPGGLTREEAIRVIKDCLRVLFYRECRAINKFQIADATSDMVSIGEPFEVETNWEYDGFCFEKTAIIR	not soluble
MTWKPNVTVAAVIEQDDKYLLVEEIPRGTAIKLNQPAGHLEPGESIIQACSREVLEETGHSFLPEVLTGIYHWTCASNGTTYLRFTFSGQVVSFDPDRKLDTGIVRAAWFSIDEIRAKQAMHRTPLVMQCIEDYHAGKRYPLDILQYYD	soluble
MSLAVVRTINGDVSPDTLGVVNAHDHLIRVGAGEVYIDPDHLLDDVDKAAQEATYFVEASKSWAAGGTIIDMCPASSGRGVLKTLQVVEKVPGLQVVQATGFHQQKVYLEWRQSWVNQYTVTQIADLLIADIVEGIDRFDYMGPIVERTNVKAGVIKWATAYGKITEWEKKSGQAVAIASKETGCPINTHVTAGTCGPEQARFLVDQGVDPAKIAIGHMQRNWDPWVHEQICKLGCYVELDGTNRIKYVPDNTRVNLVKTLGEKGYGKQILLGTDSGKASYQKVYGSVSGIDYDPAVFCPRLVEDEGVDRDYVNDLLINNAATFFGFEPLAEGHHHHHH	not soluble
MRGSHHHHHHGSKVRGKYDGPKINDYDKFYEDIWKKYVPQPVEVKQGSVYDYYDILEELGSGAFGVVHRCVEKATGRVFVAKFINTPYPLDKYTVKNEISIMNQLHHPKLINLHDAFEDKYEMVLILEFLSGGELFDRIAAEDYKMSEAEVINYMRQACEGLKHMHEHSIVHLDIKPENIMCETKKASSVKIIDFGLATKLNPDEIVKVTTATAEFAAPEIVDREPVGFYTDMWAIGVLGYVLLSGLSPFAGEDDLETLQNVKRCDWEFDEDAFSSVSPEAKDFIKNLLQKEPRKRLTVHDALEHPWLKGDHSNLTSRIPSSRYNKIRQKIKEKYADWPAPQPAIGRIANFSSLRKHRPQEYQIYDSYFDRKEAVPRFKLRPSLISS	soluble
MNEFDRVRDYLTDLQDRICAAVEAIDGKARFAEDLWQRAEGGGGRTRILRDGAVFEQAGIGFSDVSGARLPPSASAHRPELAGATWRACGVSLVFHPHNPHIPTTHANVRYFRAERDGEMVAAWFGGGFDLTPFYPVDEDVMHWHRTAQALCAPFGEERYAAHKRWCDEYFFLRHRNETRGVGGLFFDDLGQDFERDFAYQRAVGDGFLDAYLPIVERRKDTPYGEAERAFQLYRRGRYVEFNLVYDRGTLFGLQSGGRAESILMSLPPQVRWEYGFQPQPGSAEARLADYLIPRDWLGLEHHHHHH	soluble
MSLKITHTEIYRFSIPMEPFVIATGTMHFAQNVLIRIHTDNGLYGLGECSAFPMIVGENQDTCLVMAREFAKLLPGKDPLDIPGRMNDLLGYADRNTTIKSAFDMALFDLAAKHAGQPLYQFLGGNRKKVETDMTIGISSPEKMAQLAQHYQAQGCSILKVKLGKDIHEDIERVAQIRAAVGGMMTIRLDANQGWSFDDALYGLGALAKYDIEFCEQPMRSWYDDRLPELQLNSPIAIMADESCYNHHDARRLINSRSCEYLNIKFSKSGGILEAQKIHEVALQHGMKCMMGGMLESRLAATAKLHFALSAPNIVFFDLDTCMLGHLIDPVVGGMSYEGFILDVPEAPGIGADADPAFLDECESWRIEGHHHHHH	soluble
MGLFQIKPDIHYGANSLDILRTLEMEKVFLVTDENMVKLKVINKVTNILKSRGIEAKVYSDVKPDPTDEEIIKGMLELSAHDPDCIIALGGGSPIDACKSMIYFTNQIKRAMGQNKKPKFIAIPTTSGTGSEVTSYAVVTTKDKKIPLSDSEMLPDIAILNPEFIKTLSPSIIADTGMDVLTHAIEAYVSKSRNLFTNTFAIGAIKTVFADLVSNFENPQLEKERINLQIASCMAGVAFSNAGLGINHSIAHSLGARFHKPHGRLNAVIMSEVIQFNARNKNAAKYYREIVEALGFSPKEDVEGVEILAKAIKMRAAKMGIPNSLSELGIPKEQYFDEMEGIIDQIENDMCTGENPRRFSRIEMKQLLTDLY	not soluble
MSLAESRLTKLGQELAADKEFSSLERFADLVEKLQASLEIDATTLAAILLKRQQGKRPLFYVGADPMIEAMEREKSRRRERRDDRRDGDRPARREFGGRDQENHDWDTYQLQVGRDQGVQVKDIVGALANELGLTKGSIGAIKLAQGHTFVQLPKAMSNDVSSKLRKLRIRQKEVGAVVCDFDDFRESRGGARREGGPRREGGRRPEGNREGGFRGGREGGREGGRGRGGEGRPFREGERRFERNRSGESSGSYRGERGHSRRREEAEGHHHHHH	not soluble
MGSDKIHHHHHHMNRIQLSQLAVLATVAETSSFRKAAEELGIAPSAVSHAVSALEASLGVRLLARTTRSVAPTEEGRQLLQKLAPALADIGTALETLAENKSNPAGPLRITMPALAAEDLIVPRLGDFLGLYPDIQLELITNDQFEDIVEKGFDAGLRLGEHLETDMVAVKASGPISGTIIGAPSYFERHPLPVHPHDLMEHRCIRRRFSSGRIYRWELEKHGKQIAVDVPDVLTLADQRLIRLAALKGVGLAFVFDQRVDKDIREGRLIRVLEDWCPPFDGFYIYYPTRRQMRPALRAFVDFFRHRS	not soluble
GTVSATSPNKCKRPMNAFMLFAKKYRVEYTQMYPGKDNRAISVILGDRWKKMKNEERRMYTLEAKALAEEQKRLNPDCWK	soluble
MILVTGATGVVGRQVAHTLARSGRVRLLVRDPARLTVEGPGVEVATGAYEDHASLLRALKGVEAAFLVTVDPGGQEDGRFLRAAVAADVRHVVKLSSYAAGEDDADDLITRWQRKCEETLRSSGLDWTLLRPRAFMSNTLSWADSIRREGTVRALYPGSENACVDPRDIAEVAVTALTSPGHEGRVYPLTGPEAVSAEQQTRHLAAVLGRPLVCRELTPQQAAARWARRYPPKVVHALVLSAQRQLLGRKTTTDPTFARVTGHPPRSYRQWATDHRNAFA	not soluble
GAHVSRVEKLPKDYQIVYKEIQKYLFKVGPVELNEGIGLLSEILGFFEEGAAAGKGVLDVTGTDVAAFCDALIGDSKTYADLYQESIQQHVDKAMKNMKD	soluble
MLGRALRPGWLGITRTVVKKPSCGSYFNRTFQTAINTTMPPMQEGMLSTMMMMTATATRITGTVSEPLNGSNIVMQLDSVMRKRKKKMKKHKLRKRRKREKAERRKLSQGR	soluble
MGHVLIEMMGIKKGDFVLDVGCGTGRQALNVAGIIGPAGKLTGIDPSSYRIELARKKFEGDSSGNVRFLVRQAENLQDIPDNSINHAYFCSSFHWVDDKKTALNEIFRVLRPGGKVGMTTLDRNSPNTMKALIDPILAKFGIERRHEWHRGMKKVTAPELHDLLSGAGFTSISIEPRAVPRKYNSPEEFLQHPEEKDSSRGILRDISNETLEKLRQEITEEFRKAQTPEDIGFGNITLFAIATKAQEGLEHHHHHH	soluble
MNKHQKPVLTGQRFKTRKRDEKEKFEPTVFRDTLVQGLNEAGDDLEAVAKFLDSTGSRLDYRRYADTLFDILVAGSMLAPGGTRIDDGDKTKMTNHCVFSANEDHETIRNYAQVFNKLIRRYKYLEKAFEDEMKKLLLFLKAFSEAEQTKLAMLSGILLGNGTLPATILTSLFTDSLVKEGIAASFAVKLFKAWMAEKDANSVTSSLRKANLDKRLLELFPVNRQSVDHFAKYFTDAGLKELSDFLRVQQSLGTRKELQKELQERLSQECPIKEVVLYVKEEMKRNDLPETAVIGLLWTCIMNAVEWNKKEELVAEQALKHLKQYAPLLAVFSSQGQSELVLLQKVQEYCYDNIHFMKAFQKIVVLFYKADVLSEEAILKWYKEAHAAKGKSVFLDQMKKFVEWLQNAEEESESEGEES	soluble
MIERYSRPEMSAIWTDENRFQAWLEVEILACEAWAELGVIPKEDVKVMRENASFDINRILEIEKDTRHDVVAFTRAVSESLGEERKWVHYGLTSTDVVDTALSYLLKQANDILLKDLERFVDIIKEKAKEHKYTVMMGRTHGVHAEPTTFGLKLALWHEEMKRNLERFKQAKAGIEVGKISGAVGTYANIDPFVEQYVCEKLGLKAAPISTQTLQRDRHADYMATLALIATSIEKFAVEIRGLQKSETREVEEFFAKGQKGSSAMPHKRNPIGSENMTGMARVIRGYMMTAYENVPLWHERDISHSSAERIILPDATIALNYMLNRFSNIVKNLTVFPENMKRNMDRTLGLIYSQRVLLALIDTGLTREEAYDTVQPKAMEAWEKQVPFRELVEAEEKITSRLSPEKIADCFDYNYHLKNVDLIFERLGLA	soluble
MAQGTVEARHGALDEAALGIGRWRWDLRSQELVWSEEERAIFGLAPGAPVPGFAAFSAMIHPDDRARVVAAVSETLAQRRLRHSIGFRILRPDGTMRQILSHGRLVMGLDGKPISLEGVDLDLT	not soluble
RDTCVTLLLDNSGSMRGRPISIAAICADVLARTLERCQVKVEILGFTTRAWKGGQSREKWLAAGRPQQPGRLNDLRHIVYKGADAPWRRARENLGLMMKEGLLKENIDGEALEWAHRRLSSRAETRKILMVISDGAPVDDSTLSVNPASYLEKHLRDVIAMVERKRQVELIAIGIGHDVTRYYARAVTITDVEQLAGAMTEQLASLFDADPKKRIGKRRVA	not soluble
